In patent publication US20090275085A1, “Enzyme for Obtaining Prebiotic Oligosaccharides” (CONSEJO SUPERIOR DE INVESTIGACIONES CIENTIFICAS, priority 2004, published 2009):

Experiments:
[1] = substrate: OC[C@H]1O[C@H](O[C@H]2[C@H](O)[C@@H](O)[C@@H](O[C@H]3[C@H](O)[C@@H](O)C(O)O[C@@H]3CO)O[C@@H]2CO)[C@H](O)[C@@H](O)[C@@H]1O; test: purified protein, by the assay type; details: other: 30 minutes, 100 ng of enzyme; starch supplied by Avebe, 8100 Da
[2] = substrate: OC[C@H]1O[C@H](O[C@H]2[C@H](O)[C@@H](O)[C@@H](O[C@H]3[C@H](O)[C@@H](O)[C@@H](O[C@H]4[C@H](O)[C@@H](O)[C@@H](O[C@H]5[C@H](O)[C@@H](O)[C@@H](O[C@H]6[C@H](O)[C@@H](O)[C@@H](O[C@H]7[C@H](O)[C@@H](O)C(O)O[C@@H]7CO)O[C@@H]6CO)O[C@@H]5CO)O[C@@H]4CO)O[C@@H]3CO)O[C@@H]2CO)[C@H](O)[C@@H](O)[C@@H]1O; test: Kinetic constants of X. dendrorhous α-glucosidase glycosylhydrolase activity; assay type: biochemical, Xanthophyllomyces dendrorhous; details: other: 30 minutes, 100 ng of enzyme; starch supplied by Avebe, 8100 Da
Protocol: The tests were carried out in 30 minutes and with 100 ng of enzyme for each reaction.

B1: X. dendrorhous α-glucosidase (purified enzyme) (Phaffia rhodozyma) (protein)
chain: SSPSSFQGPSELLSNQKRYSKRDNTGSYSLNTTACGGYSVSSVDSTGNGLQAHLSLNGEPCRAFGVDYTDLLVDVEYQTQERIRVHIYDADKIEFQVPENIFPKPQSDNGLDLNQTDLVFNHQENPFAFWITRRNASDDETPIFDTRPSSKTSVDYPIEPPYGGVEKVNSSTAVPDESGGLVFEAGYLEISSFLPKDANIFGLGEVVATSGFRRNSSATVQTMWARDVGDPENQNMYGDHPIYIETRFNKNGASSSHGVFLLNSEGMDIVLRDEVIEYRPLGGSLDFYFISGPTPIKVIEQYSEISGRSLLHPYWSYGFHLCRWGYDNITQNREIVQSMKDANLPLETFWNDIDWMDTYRNFVPAPNRFEPADYKAFVDELHANNQHYIPIIDAAIGVVTNDTDVYDTFTAGDAANTYIKNPDGSNYIGKVWPGYTVFPDWFQNSTQDWWTEAFINYSQIVEFDGIWIDMNEPSSFCEGSCGSSADLNNITPPFLLPGQPGAVTLIDGTFPEGYNATLWGYSGNLTINGSLTFNSTPPNYGRPDRRSQLSRRVGQGVDVNTPAYEIHNALDKLAISTVSPNATHLNGDIQDIDVHNLFGYMEGIATFNVWNTYKPNKRPFIVSRSTFPGAGTKVAHWLGDNYSTWKYLRYVNQGVLQFQIYGIPMVGADTCGFAGNTDEELCNRWMQLAAFYPFFRNHNIKSALAQEPFRWDSVAEATRNATAIRYALLPYWYTLFYQASSVGTPPIRALFYEFDQEELLSVDAQFLVGRNVLVTGAMYPNITSVEGYLPGGDDEIWRDWYTHEVIKPTSDDGKYDFPAPLGHIPVTIRSGAIFLLHSEPGMTVYDTRESPYSILVSLDKSSEAEGYAFIDDGESFPVTDSREVHLGAAEGKVYGWTSGSYNVGQKLAQVTVLGVKTEPSTVTFNGQAITTGWTYEADLERFVVTGLQGDLNGGWELDWA
Km [1]: 550 µM | kcat [1]: 4 s⁻¹ | kcat/Km [1]: 7270 M⁻¹ s⁻¹ | Km [2]: 860 µM | kcat [2]: 5 s⁻¹ | kcat/Km [2]: 5800 M⁻¹ s⁻¹
